For test [1], the target named is T1, mesothelin (MSLN), full length (UniProt Q13421 296-598, limits assumed).
T1 construct: coating antigen of the ELISA; construct not described
Briefly: ELISA, supernatant.

The target in test [2] is T2, EGFR on 293T-EGFR cells (293T cells negative for BCMA expression) (UniProt P00533 25-1210, limits assumed).
T2 construct: whole, on cells; negative control cells; that they carry EGFR is read from the label only
Nature of the test: flow cytometry.

A further test deals with T3, BCMA on RPMI8226 cells (UniProt Q02223 1-184, limits assumed).
T3 construct: whole, on cells
T3 sequence (looked up): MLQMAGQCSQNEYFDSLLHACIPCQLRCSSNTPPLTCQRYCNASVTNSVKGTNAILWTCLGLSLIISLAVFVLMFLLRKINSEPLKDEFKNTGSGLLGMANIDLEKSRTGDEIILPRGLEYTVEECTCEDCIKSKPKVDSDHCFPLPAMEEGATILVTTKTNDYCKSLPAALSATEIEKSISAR
Nature of the test: FACS on RPMI8226 cells.

The target of a further test is T4, BCMA-Fc (human, UniProt Q02223 1-54).
T4 construct: coating antigen, 1 ug/mL; also called Fc-conjugated human BCMA; not shown: Fc
T4 sequence (looked up): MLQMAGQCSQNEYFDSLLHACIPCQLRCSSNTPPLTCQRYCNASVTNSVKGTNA
Briefly: ELISA, BCMA-Fc coated 1 ug/mL.

The next test deals with T5, Anti-His.
T5 construct: ELISA coating control
Briefly: ELISA, Anti-His coated 1 ug/mL.

The target of a further test is T6, BCMA-His (human, UniProt Q02223 1-54).
T6 construct: coating antigen, 1 ug/mL; also called His-conjugated human BCMA; not shown: His tag
T6 sequence (looked up): T4 sequence (looked up)
Nature of the test: ELISA, BCMA-His coated 1 ug/mL.

Another test concerns the target T7, human IgG.
T7 construct: ELISA coating control
Nature of the test: ELISA, human IgG coated 1 ug/mL.

Test [3] has as its target T2, EGFR on 293T-EGFR cells (293T cells …). Briefly: FACS on 293T-EGFR cells (BCMA negative).
The target in another test is T8, MSLN epitope domain 1 (UniProt Q13421 296-390, limits assumed).
T8 construct: domain: domain 1; also called domain 1 of MSLN
T8 sequence (Q13421 296-390 limits assumed): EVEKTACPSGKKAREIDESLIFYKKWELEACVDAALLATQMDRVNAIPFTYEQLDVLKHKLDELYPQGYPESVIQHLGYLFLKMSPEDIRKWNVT
Nature of the test: ELISA, supernatant.

The target in a further test is T9, MSLN epitope domain 3 (UniProt Q13421 487-598, limits assumed).
T9 construct: domain: domain 3; also called domain 3 of MSLN
T9 sequence (Q13421 495-606 limits assumed): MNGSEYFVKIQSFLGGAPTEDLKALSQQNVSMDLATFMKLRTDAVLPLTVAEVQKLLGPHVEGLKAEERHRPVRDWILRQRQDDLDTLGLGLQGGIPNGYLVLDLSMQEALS
Nature of the test: ELISA, supernatant.

A further test concerns the target T10, MSLN epitope domain 2 (UniProt Q13421 391-486, limits assumed).
T10 construct: domain: domain 2; also called domain 2 of MSLN
Nature of the test: ELISA, supernatant.

T10 sequence (Q13421 other isoform, or with tags, fused parts or gaps limits assumed): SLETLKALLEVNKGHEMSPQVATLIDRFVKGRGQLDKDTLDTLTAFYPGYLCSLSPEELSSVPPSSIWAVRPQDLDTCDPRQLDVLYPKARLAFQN
T1 sequence (Q13421 other isoform, or with tags, fused parts or gaps limits assumed): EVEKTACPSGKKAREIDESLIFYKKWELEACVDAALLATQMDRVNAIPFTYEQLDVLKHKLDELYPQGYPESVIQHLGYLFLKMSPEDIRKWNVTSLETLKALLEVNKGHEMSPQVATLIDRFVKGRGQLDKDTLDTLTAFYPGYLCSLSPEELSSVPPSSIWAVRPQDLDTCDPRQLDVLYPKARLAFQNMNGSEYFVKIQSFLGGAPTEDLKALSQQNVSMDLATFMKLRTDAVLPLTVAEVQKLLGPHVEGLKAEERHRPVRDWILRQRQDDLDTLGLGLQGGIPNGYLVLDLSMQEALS

B1: NBL501#003 (VHH)
VHH: QVQLVESGGGLVQPGGSLRLSCAASGITLDYYAIGWFRQAPGKEREGVSCISSSGGSTNYADSVKGRFTMSRDNAKNTVYLQMNSLKPEDTAVYYCAADIHCSGYVLFSPSDFGNWGQGTQVTVSS
notes: tested as supernatant in ELISA
Turning to B1, the binding result in [1] is listed as “no binding”.

B2: NBL501#006 (VHH)
VHH: QVQLVESGGGLVQAGGSLRLSCAASGSADSIPAMGWYRQAPGKEREYLAAISSGTNTYYASSAKGRFAISRNNANNTLYLQMNSLKPEDTAMYYCATCSSYYYCSGPYVRSWGQGTQVTVSS
notes: as for B1
Regarding B2, the binding result in [1] is “no binding”.

B3: NBL507-A2L1-P1R2-1H1-(275)-PME207-SEQF_G11 (VHH)
VHH: QVQLVESGGGLVHPGGSLRLACAASERILSFNVMGWYRQAPGQQREVVATITSVGRTYYADSVKGRFTIFKDNGKNTYLQMSSLKPEDTAVYYCKAVTVGDVDTEYWGQGTQVTVSS
notes: purified VHH
As to B3, in [2], the binding result is “no binding”. Further, the MFI with BCMA on RPMI8226 cells worked out at 532 MFI; in test [3] it was 222 MFI. Moreover, the OD450 in the test with BCMA-Fc was 3.3 OD450; in the test with Anti-His, 0.98 OD450; in the test with BCMA-His, 2.11 OD450; with human IgG it was 0.04 OD450.

B4: NBL501#011 (VHH)
VHH: QVQLVESGGGLVQAGGSLRLSCAVFGNTGAIHAMAWYRQAPGKQREEVARISFGDGRTVYGDSVKGRFTISGDDAKNTMYLQMNILKAEDTAEYYCNAVFLGIGPTGRFEYEYWGQGTQVTVSS
notes: as for B1
For B4, the binding result in test [1] is given as “no binding”.

B5: NBL501#007 (VHH)
VHH: QVQLVESGGGLVQPGGSLTLSCAASGFTFSSYYMSWVRQAPGKGPEWVSIISTGGASTVYTDSVKGRFTASRDNAKNTLYLQMNSLKPEDTALYYCVRGNSRSGLIPRAYWGQGTQVTVSS
notes: as for B1
With B5, the binding result in test [1] is reported as “no binding”.

B6: NBL501#009 (VHH)
VHH: EVQVVESGGGLVQAGGSLRLSCVASGFTFSVAAMRWYRQAPGKQREWVASAFSDGNLHYEDFVKGRFTISRDDAKNTLYLQMDSLKPEDTAVYYCNAGTPSRAYWGQGTQVTVSS
notes: as for B1
Consider B6, for which the binding result with MSLN epitope domain 1 and with MSLN epitope domain 3 was “no binding” in each case.

B7: NBL501#010 (VHH)
VHH: QVKLEESGGGLVQAGGSLRLSCVASGSIFSINAMGWYRRAPGKERELVASISSDGSIYYADSVKGRFTISRDNAKNTLYLQMNSLKPEDTAMYDCAALGVVNVGVRPTLEYIYWGQGTQVTVSS
notes: as for B1
Consider B7, for which the binding result in test [1] was “no binding”.

B8: NBL501#004 (VHH)
VHH: EVQVVESGGGLVQAGGSLRLSCVPSGSISSIYAMGWYRQALGPERELVAAQTLGGGTYYANPVKGRFTIYRDNDKNTLYLQMNNLKPEDTAMYYCATPGEHWGSSDVTNWGQGTQVTVSS
notes: as for B1
As for B8, the binding result in the test with MSLN epitope domain 2 and with MSLN epitope domain 3 was “no binding” each time.

B9: NBL501#008 (VHH)
VHH: QVQLVESGGGLVQAGGSLRLSCVASGIVFRLNAMGWFRQAPGRERELVATIASGGWAYYGDTMSGRVTISRDNDKNTLYLEMNSLKPEDSAMYYCSAGGARPHSWGQGTQVTVSS
notes: as for B1
Consider B9, for which the binding result with MSLN epitope domain 2 and with MSLN epitope domain 3 was “no binding” each time.

B10: NBL501#002 (VHH)
VHH: QVQLVESGGGLVQAGGSLRLSCAASISIRRINAMGWYRQAPGKERELVAVISSPNKTLYADSVKGRFTISKDNYTNTLYLQMNSLKPEDTAMYYCSAWRIGVDTTDYYGQGTQVTVSS
notes: as for B1
B10: the binding result in the test with MSLN epitope domain 2 and with MSLN epitope domain 3 was “no binding” in each case.

The values above are taken from US20230002757A1 (ZHEJIANG NANOMAB TECHNOLOGY CENTER, published 2023).
